Experimental data from patent publication US8119766 (UNIVERSITY OF IOWA RESEARCH FOUNDATION, dated 2012).
Each block holds one molecule with its values, some of them ahead of it.

How the values were obtained:
[1] = target: full-length α-DG-IgG Fc fusion protein (DGFc5), secreted form from conditioned medium (human); test: solid-phase binding of laminin-1, nonlinear regression (FIG. 8C)
[2] = target: LARGE-modified DGFc5 (human); test: solid-phase laminin-1 binding assay, nonlinear regression (FIG. 9C)
[3] = target: full-length α-DG-IgG Fc fusion protein (DGFc5), secreted form from conditioned medium (human); test: as above
laminin-1 [4] = target: T1, laminin-1 (mouse, UniProt P19137 25-3083; P02469 22-1786; P02468 34-1607); test: laminin-1 overlay, with LARGE co-expression
T1 construct: also called mouse EHS laminin-1; biotinylated laminin-1

laminin-1 [5] = target: T1, laminin-1; test: laminin overlay
laminin-1 [6] = target: T1, laminin-1; test: solid-phase binding of laminin-1, nonlinear regression (FIG. 8C)

Molecule: laminin-1 (from UniProt P19137 25-3083; P02469 22-1786; P02468 34-1607) (ligand)
Kd [1]: 1.1 nM
Kd [2]: 1.6 nM
Kd [3]: 3.1 nM

B1: DGFc6, secreted form (Fc fusion, UniProt Q28685 317-653, looked up)
chain: TPTPVTAIGPPTTAIQEPPSRIVPTPTSPAIAPPTETMAPPVRDPVPGKPTVTTRTRGAIIQTPTLGPIQPTRVSDAGTVVSGQIRATVTIPGYVEPTAVATPPTTTTKKPRVSTPKPATPSTDSSATTTRRPTKKPRTPRPVPRVTTKAPITRLETASPPTRIRTTTSGVPRGGEPNQRPELKNHIDRVDAWVGTYFEVKIPSDTFYDKEDTTTDKLKLTLKLREQQLVGEKSWVQFNSNSQLMYGLPDSSHVGKHEYFMHATDKGGLSAVDAFEIHVHKRPQGDKAPARFKAKFVGDPAPVVNDIHKKIALVKKLAFAFGDRNCSTVTLQNITRG
notes: domain: mucin-like domain and C-terminal domain; Tested with and without LARGE co-expression; not shown: IgG Fc portion
binding result (laminin-1 [4]): no binding

B4: native α-DG (receptor, rabbit, UniProt Q28685 30-653, looked up)
chain: HWPSEPSEAVRDWENQLEASMHSVLSDLHEALPTVVGIPDGTAVVGRSFRVTIPTDLIGSSGEVIKVSTAGKEVLPSWLHWDPQSHTLEGLPLDTDKGVHYISVSAAQLDANGSHIPQTSSVFSIEVYPEDHSEPQSVRAASPDLGEAAASACAAEEPVTVLTVILDADLTKMTPKQRIDLLHRMQSFSEVELHNMKLVPVVNNRLFDMSAFMAGPGNAKKVVENGALLSWKLGCSLNQNSVPDIRGVEAPAREGTMSAQLGYPVVGWHIANKKPPLPKRIRRQIHATPTPVTAIGPPTTAIQEPPSRIVPTPTSPAIAPPTETMAPPVRDPVPGKPTVTTRTRGAIIQTPTLGPIQPTRVSDAGTVVSGQIRATVTIPGYVEPTAVATPPTTTTKKPRVSTPKPATPSTDSSATTTRRPTKKPRTPRPVPRVTTKAPITRLETASPPTRIRTTTSGVPRGGEPNQRPELKNHIDRVDAWVGTYFEVKIPSDTFYDKEDTTTDKLKLTLKLREQQLVGEKSWVQFNSNSQLMYGLPDSSHVGKHEYFMHATDKGGLSAVDAFEIHVHKRPQGDKAPARFKAKFVGDPAPVVNDIHKKIALVKKLAFAFGDRNCSTVTLQNITRG
modifications: native glycosylation; sites not stated
notes: mature; also called native α-dystroglycan purified from rabbit skeletal muscle
Kd (laminin-1 [6]): 0.4 nM

Now from value to molecule:

binding result (laminin-1 [5]): no binding
B2: DGFc2 prepared from cell lysate (Fc fusion, UniProt Q28685 30-316, looked up)
chain: HWPSEPSEAVRDWENQLEASMHSVLSDLHEALPTVVGIPDGTAVVGRSFRVTIPTDLIGSSGEVIKVSTAGKEVLPSWLHWDPQSHTLEGLPLDTDKGVHYISVSAAQLDANGSHIPQTSSVFSIEVYPEDHSEPQSVRAASPDLGEAAASACAAEEPVTVLTVILDADLTKMTPKQRIDLLHRMQSFSEVELHNMKLVPVVNNRLFDMSAFMAGPGNAKKVVENGALLSWKLGCSLNQNSVPDIRGVEAPAREGTMSAQLGYPVVGWHIANKKPPLPKRIRRQIHA
notes: domain: N-terminal domain; About 65 kDa; also called DGFc2 (cell lysate); not shown: IgG Fc portion

binding result (laminin-1 [5]): no binding
B3: secreted DGFc2 from cells cultured with CMK (Fc fusion, UniProt Q28685 30-316, looked up)
chain: HWPSEPSEAVRDWENQLEASMHSVLSDLHEALPTVVGIPDGTAVVGRSFRVTIPTDLIGSSGEVIKVSTAGKEVLPSWLHWDPQSHTLEGLPLDTDKGVHYISVSAAQLDANGSHIPQTSSVFSIEVYPEDHSEPQSVRAASPDLGEAAASACAAEEPVTVLTVILDADLTKMTPKQRIDLLHRMQSFSEVELHNMKLVPVVNNRLFDMSAFMAGPGNAKKVVENGALLSWKLGCSLNQNSVPDIRGVEAPAREGTMSAQLGYPVVGWHIANKKPPLPKRIRRQIHA
notes: domain: N-terminal domain; Migrated at the same size (~65 kDa) as DGFc2 from cell lysate; also called DGFc2 (CMK-treated, secreted); not shown: IgG Fc portion
